Test results: patent US20020026033A1 (BOARD OF REGENTS OF THE UNIVERSITY OF OKLAHOMA, published 2002)
Ends that are not written are not given here. * marks the point of attachment. sulfate = O=S(=O)(O)*

Biological target: T1, recombinant soluble P-selectin (sPS) (UniProt P16109 42-771, limits assumed)
T1 construct: Neither the residues nor the species are stated
T1 sequence (looked up): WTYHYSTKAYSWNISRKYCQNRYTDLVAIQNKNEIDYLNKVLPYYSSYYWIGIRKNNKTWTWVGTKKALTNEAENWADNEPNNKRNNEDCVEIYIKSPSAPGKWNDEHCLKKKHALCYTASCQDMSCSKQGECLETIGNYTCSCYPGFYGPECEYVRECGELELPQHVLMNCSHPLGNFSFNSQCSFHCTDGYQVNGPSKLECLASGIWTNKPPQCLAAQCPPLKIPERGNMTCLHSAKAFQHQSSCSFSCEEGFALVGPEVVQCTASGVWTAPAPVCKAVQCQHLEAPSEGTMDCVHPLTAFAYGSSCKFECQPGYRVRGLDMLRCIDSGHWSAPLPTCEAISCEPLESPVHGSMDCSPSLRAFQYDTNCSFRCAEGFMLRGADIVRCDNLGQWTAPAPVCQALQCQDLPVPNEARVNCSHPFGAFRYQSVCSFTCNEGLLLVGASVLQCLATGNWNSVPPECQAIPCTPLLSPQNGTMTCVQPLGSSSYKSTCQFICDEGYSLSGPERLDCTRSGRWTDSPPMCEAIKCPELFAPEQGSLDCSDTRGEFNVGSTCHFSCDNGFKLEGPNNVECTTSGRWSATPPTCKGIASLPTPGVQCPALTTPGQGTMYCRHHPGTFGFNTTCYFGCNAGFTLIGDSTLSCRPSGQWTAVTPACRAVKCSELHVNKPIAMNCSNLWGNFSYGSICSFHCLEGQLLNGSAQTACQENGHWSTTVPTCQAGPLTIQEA
Test: equilibrium gel filtration; fluid-phase sPS (25-1000 pmol) on columns equilibrated with 35SO3-GSP-6 in Ca2+-containing buffer
Experimental: Equilibrium gel filtration experiments were conducted in a Sephadex G-75 column (0.5×10 cm, 2 ml) equilibrated with 4 ml of 20 mM MOPS, pH 7.5, containing 150 mM NaCl, 2 mM CaCl₂, 2 mM MgCl₂, and 0.02% NaN₃ (buffer A), and ³⁵SO₃-GSP-6 (10,000 cpm/ml, specific activity 1700 cpm/pmol). Different amounts of soluble P-selectin (sPS) (25-1000 pmol) (Ushiyama et al., J. Biol. Chem., 268:15229-15237, 1993) were preincubated for 30-60 min in 120 μl of buffer A containing ³⁵SO₃-GSP-6 and applied to the column. Samples were eluted with buffer A (including ³⁵SO₃-GSP-6), and 140 μl fractions were collected at a flow rate of 70 μl/min. Radioactivity in the fractions was determined by liquid scintillation counting. Control experiments to test inhibitors of binding between sPS and GSP-6 were performed using 400 pmol of sPS and 5,000 cpm/ml of ³⁵SO₃-GSP-6. The EDTA concentration was 1 mM in 20 mM MOPS, pH 7.5, 150 mM NaCl, 0.02% NaN₃. Anti-P-selectin monoclonal antibodies (G1 and S12) (800 pmol each) were preincubated for 30 min with sPS in buffer A before ³⁵SO₃-GSP-6 was added. Elution was performed by using buffer A with ³⁵SO₃-GSP-6.
The dissociation constant (Kd) for binding of GSP-6 to soluble sPS was determined using an equilibrium gel filtration technique. […]

B1: glycosulfopeptide-6 (GSP-6) (peptide)
peptide: GQATEY(sulfate)EY(sulfate)LDY(sulfate)DFLPETEPPEML
modifications: also: core-2 O-glycan with sialyl Lewis x on a Thr, position not given here
notes: range 42-63; Synthetic glycosulfopeptide; also called 35SO3-GSP-6; 35SO3-glycosulfopeptide-6
Kd: ~350 nM
